Assay results reported in US5908827, “Protein from urine named component B” (Applied Research Systems ARS Holding N.V., dated 1999).

Biological target: TGF-alpha receptor obtained from A 431 cell membranes (Homo sapiens (Human), UniProt P00533)
Experiment: displacement of I^125-TGF-alpha from its receptor on A 431 cell membranes (radioligand competition)

B1: Component B (other)
chain: LKCYTCKEPMTSASCRTITRCKPEDTACMTTLVTVEAEYPFNQSPVVTRSCSSSCVATDPDSIGAAHLIFCCFRDLCNSEL
modifications: SO4 group bound to Tyr (39); five disulfide bridges (urinary material)
Ki: 0.077 nM
